Measured values published in patent US20110166032A1, “Design and Use of Sortilin Specific Molecular Imaging Ligands” (H. LUNDBECK A/S, priority 2008, published 2011).
Residue numbers refer to the chain shown, from its start. No end group written: not given here.

T1: immobilized sSortilin (Homo sapiens, UniProt Q99523)
T1 construct: His6 (C); made in house; host or cells: CHO-K1
T1 sequence (Q99523 78-755): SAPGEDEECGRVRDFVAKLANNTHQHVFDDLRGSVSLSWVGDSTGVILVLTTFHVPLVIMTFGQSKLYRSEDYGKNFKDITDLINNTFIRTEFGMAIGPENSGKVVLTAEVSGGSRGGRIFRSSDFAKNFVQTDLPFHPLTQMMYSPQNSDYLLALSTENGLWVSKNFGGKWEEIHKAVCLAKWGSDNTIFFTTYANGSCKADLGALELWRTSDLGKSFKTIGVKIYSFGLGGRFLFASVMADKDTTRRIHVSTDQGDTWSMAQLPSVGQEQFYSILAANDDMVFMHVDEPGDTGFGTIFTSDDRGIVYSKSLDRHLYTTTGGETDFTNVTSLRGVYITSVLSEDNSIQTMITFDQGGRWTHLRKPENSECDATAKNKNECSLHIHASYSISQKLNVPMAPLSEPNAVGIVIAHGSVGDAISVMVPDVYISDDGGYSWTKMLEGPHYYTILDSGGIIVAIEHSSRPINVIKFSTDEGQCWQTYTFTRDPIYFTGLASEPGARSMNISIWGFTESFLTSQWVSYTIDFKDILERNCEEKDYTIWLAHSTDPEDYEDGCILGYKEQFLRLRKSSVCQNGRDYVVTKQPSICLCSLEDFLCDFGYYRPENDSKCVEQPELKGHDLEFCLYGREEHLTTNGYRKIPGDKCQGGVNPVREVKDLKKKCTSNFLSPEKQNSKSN

T2: sSortilin S316E mutant (Homo sapiens, UniProt Q99523, S316E)
T2 construct: His6 (C); made in house; host or cells: CHO cells
T2 sequence (Q99523 78-755 S316E): T1 sequence (Q99523 78-755) with S239E

T3: Soluble Sortilin (sSortilin), luminal domain of human Sortilin fused C-terminally to His6 (human, UniProt Q99523 78-755)
T3 construct: Expressed in CHO-K1 cells; 1; also called wtSortilin; wt sSortilin
T3 sequence: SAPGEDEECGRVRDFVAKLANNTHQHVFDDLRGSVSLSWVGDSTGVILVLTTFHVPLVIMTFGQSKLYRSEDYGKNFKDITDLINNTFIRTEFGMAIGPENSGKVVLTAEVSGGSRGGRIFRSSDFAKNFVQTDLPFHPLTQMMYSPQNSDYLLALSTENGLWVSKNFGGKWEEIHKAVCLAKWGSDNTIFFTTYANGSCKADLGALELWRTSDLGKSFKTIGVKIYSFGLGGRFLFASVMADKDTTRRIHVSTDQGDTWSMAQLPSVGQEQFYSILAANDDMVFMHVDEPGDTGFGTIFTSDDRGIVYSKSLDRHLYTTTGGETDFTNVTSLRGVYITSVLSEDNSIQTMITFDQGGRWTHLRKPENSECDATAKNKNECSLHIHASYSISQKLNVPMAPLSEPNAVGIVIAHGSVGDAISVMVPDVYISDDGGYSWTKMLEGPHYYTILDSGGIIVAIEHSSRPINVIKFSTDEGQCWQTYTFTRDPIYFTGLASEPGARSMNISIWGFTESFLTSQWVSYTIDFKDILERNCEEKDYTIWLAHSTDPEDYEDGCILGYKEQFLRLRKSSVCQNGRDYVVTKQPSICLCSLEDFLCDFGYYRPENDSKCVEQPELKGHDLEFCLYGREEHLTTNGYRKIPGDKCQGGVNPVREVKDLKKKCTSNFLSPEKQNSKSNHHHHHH

T4: sSortilin S316E mutant (human, UniProt Q99523 78-755)
T4 construct: those of wt sSortilin are used
T4 sequence: T3 sequence with S239E

B1: propeptide of Nerve Growth Factor (NGFpro), E. coli expressed, His6 tag removed by TEV (ligand)
chain: EPHSESNVPAGHTIPQVHWTKLQHSLDTALRRARSAPAAAIAARVAGQTRNITVDPRLFKKRRLRSPRVLFSTQPPREAADTQDLDFEVGGAAPFNRTHRSKR
notes: also called NGF propeptide; pro-domain of Nerve Growth Factor
B2: NGFpro: propeptide of Nerve Growth Factor, amino acid residues 19 to 121 of SEQ ID NO 6 (protein)
chain: B1 chain
modifications: left off: a dimerising Fc or GST
B3: BDNF: Mature BDNF (SEQ ID NO. 7) purchased from R&D Systems (protein, listed as Homo sapiens)
chain: MTILFLTMVISYFGCMKAAPMKEANIRGQGGLAYPGVRTHGTLESVNGPKAGSGLTSLADTFEHVIEELLDEDQKVRPNEENNKDADLYTSRVMLSSQVPLEPPLLFLLEEYKNYLDAANMSMRVRRHSDPARRGELSVCDSISEWVTAADKKTAVDMSGGTVTVLEKVPVSKGQLKQYFYETKCNPMGYTKEGCRGIDKRHWNSQCRTTQSYVRALTMDSKKRIGWRFIRIDTSCVCTLTIKRGR
modifications: SIGNAL (1)..(18) Signal peptide of BDNF
B4: GST-tagged Sortilin propeptide (GST-Sort-pro) (other)
chain: QDRLDAPPPPAAPLPRWSGPIGVSWGLRAAAAGGAFPRGGRWRR
modifications: also: fused to GST, order and linker not given here
notes: the construct is 'as previously described (5)'; also called Sortilin propeptide fused to GST; not shown: glutathione S-transferase (GST) tag

Legend:
immobilized sSortilin = molecular target: T1, immobilized sSortilin; assay: Surface plasmon resonance: inhibition of ligand binding to immobilized sSortilin by Neurotensin derived peptides; conditions: for inhibition of Sortilin's binding of its own propeptide (Sort-pro): GST-Sort-pro binding to immobilized sSortilin, FIG. 3A+B
Method: (§1) Surface plasmon resonance (SPR) measurements were performed on a BIAcore 2000 instrument (Biacore Sweden) equipped with CM5 sensor chips maintained at 20° C. A continuous flow of HBS buffer (10 mM HEPES pH 7.4, 3.4 mM EDTA, 150 mM NaCl, 0.005% surfactant P20) passing over the sensor surface was maintained at 5 μl/min. […] A sortilin solution (320 μl, 5 μg/ml in 10 mM sodium acetate pH 4.0) was then injected over flow cells 1 and 2 at a flow rate of 15 μl/min. Remaining binding sites in all three flow cells were blocked by injection (5 μl/min) of 70 μl of 1 M ethanolamine pH 8.5. […] Screening of the samples was performed by injecting aliquots of 50 μl, at concentrations of 0.1-8 μM, through all flow cells with a flow rate of 5 μl/min. Unless otherwise stated, the samples were dissolved in 10 mM HEPES pH 7.4, 150 mM NaCl, 1.5 mM CaCl2, 1 mM EGTA, 0.005% surfactant P20. Sample buffer was also used as running buffer. The BIAcore response is expressed in relative response units (RU), i.e. the difference in response between the immobilized protein flow cell and the corresponding control flow cell (activated and blocked but without protein). Regeneration of the sensor chip after each cycle of analysis was performed by injecting 20 μl of 10 mM glycine/HCl pH 4.0, 500 mM NaCl, 20 mM EDTA and 0.005% surfactant P20. For calciumfree conditions, HBS containing 20 mM EDTA was used as sample as well as running buffer.

sSortilin S316E mutant [1] = molecular target: T2, sSortilin S316E mutant; assay: Surface plasmon resonance: ligand binding to purified S316E mutant sSortilin compared with wt sSortilin; conditions: compared with wtSortilin, SPR
Method: as §1

[2] = molecular target: T3, Soluble Sortilin (sSortilin), luminal …; assay: SPR (BIAcore 3000), immobilised sSortilin
Method: All measurements were performed on a BIAcore 3000 instrument (Biacore Sweden) maintained at 20° C. A continuous flow of buffer F (10 mM HEPES pH=7.4, 150 mM (NH₄)₂SO₄, 1.5 mM CaCl₂, 1.5 mM EGTA and 0.005% Tween-20) was passed over the CM5 chip sensor surface at 5 μl/min.

sSortilin S316E mutant [3] = molecular target: T4, sSortilin S316E mutant; assay: SPR, immobilised S316E sSortilin
Method: as §1, with “For calciumfree conditions, HBS containing 20 mM EDTA was used as sample as well as running buffer.” left out

Molecule	inhibition of Sortilin's binding of its own propeptide (Sort-pro) (immobilized sSortilin; SPR)	binding to S316E mutant sSortilin (sSortilin S316E mutant [1])	other results
Arg9-Pro-Tyr-Ile-Leu13 [reference compound]	equally effective		
Arg8-Arg-Pro-Tyr-Ile-Leu13-NH2 [reference compound]	fails to inhibit		
Sort-pro: Sortilin's own propeptide (amino acid residues 34-77 of SEQ ID NO. 1), used fused to GST (QDRLDAPPPPAAPLPRWSGPIGVSWGLRAAAAGGAFPRGGRWRR; also: fused to GST)		no binding	
Tyr-Ile-Leu [Tyr11-Ile-Leu13]	full inhibition		affinity for Sortilin (summary statement) (immobilized sSortilin): high affinity; inhibition of binding of the prodomain of NGF to sSortilin (immobilized sSortilin; GST-tagged propeptide of NGF, SPR, FIG. 3C): hampers binding; inhibition of binding of RAP to sSortilin (immobilized sSortilin; SPR, FIG. 3D): hampers binding
B1			Kd [2]: ~10 nM
B2		did bind	
B3		did bind	
B4			binding result (sSortilin S316E mutant [3]): no binding
